B1: CD71-binding FN3 domain SEQ ID NO: 259 (designed binder)
chain: MSLPAPKNLVVSRVTEDSARLSWTAPDAAFDSFYIAYAEPRPDGEAILLEVPGSERSYDLTGLKPGTEYSVLIHGVKGGLLSSPLSATFTT
B2: CD71-binding FN3 domain SEQ ID NO: 261 (designed binder)
chain: B1 chain with E50W, S86H, T88Y
B3: CD71-binding FN3 domain SEQ ID NO: 273 (designed binder)
chain: MLPAPKNLVVSRVTEDSARLSWTAPDAAFDSFEISYWEHTFNGEAIILFVPGSERSYDLTGLKPGTEYYVTIGGVKGGAWSPPLWAEFTT
B4: CD71-binding FN3 domain SEQ ID NO: 262 (designed binder)
chain: MSLPAPKNLVVSRVTEDSARLSWTAPDAAFDSFFIGYLEPQPPGEVIHLFVPGSERSYDLTGLKPGTEYNVTIQGVKGGFPSDPLVASFTT
B5: CD71-binding FN3 domain SEQ ID NO: 279 (designed binder)
chain: B4 chain with V46A, F50Y, F80N, P81W, D83A, V86S, S88I
B6: CD71-binding FN3 domain SEQ ID NO: 264 (designed binder)
chain: B4 chain with V46A, H48A, F50Y, D83E, A87V, S88H
B7: CD71-binding FN3 domain SEQ ID NO: 266 (designed binder)
chain: B4 chain with V46A, H48Y, F50L, D83L, S88T
B8: CD71-binding FN3 domain SEQ ID NO: 270 (designed binder)
chain: B4 chain with V46A, F50Y, D83E, V86I, S88N, F89S
B9: CD71-binding FN3 domain SEQ ID NO: 265 (designed binder)
chain: B4 chain with V46A, H48S, F50Y, S88H
B10: CD71-binding FN3 domain SEQ ID NO: 281 (designed binder)
chain: B4 chain with V46A, H48A, F50Y, D83E, V86I, S88N
B11: CD71-binding FN3 domain SEQ ID NO: 282 (designed binder)
chain: MSLPAPKNLVVSRVTEDSARLSWTAPDAAFDSFDIGYFELTWYGEAIVLTVPGSERSYDLTGLKPGTEYWVSIGGVKGGRFSEPLYARFTT
B12: CD71-binding FN3 domain SEQ ID NO: 267 (designed binder)
chain: MSLPAPKNLVVSRVTEDSARLSWTAPDAAFDSFEISYWEHTFNGEAIILFVPGSERSYDLTGLKPGTEYYVTIGGVKGGAWSPPLWAEFTT
B13: CD71-binding FN3 domain SEQ ID NO: 263 (designed binder)
chain: MSLPAPKNLVVSRVTEDSARLSWTAPDAAFDSFEIGYFENLYLGEAIVLTVPGSERSYDLTGLKPGTEYWVQIGGVKGGNWSSPLSAIFTT
B14: CD71-binding FN3 domain SEQ ID NO: 277 (designed binder)
chain: B11 chain with D34E, W42Y, S72Q, R80G, Y86S, R88I
B15: CD71-binding FN3 domain SEQ ID NO: 284 (designed binder)
chain: B13 chain with F38W, L41A, L43K, W70M, Q72F, N80V, S83V
B16: CD71-binding FN3 domain SEQ ID NO: 269 (designed binder)
chain: B13 chain with L41D, L43F, W70V, Q72F, S83A
B17: CD71-binding FN3 domain SEQ ID NO: 276 (designed binder)
chain: B13 chain with G36A, N40L, L41D, L43V, N80T, S83G, T91I
B18: CD71-binding FN3 domain SEQ ID NO: 274 (designed binder)
chain: B13 chain with G36V, F38W, N40Q, L41V, Y42G, L43V, N80G, W81F, S83E
B19: CD71-binding FN3 domain SEQ ID NO: 271 (designed binder)
chain: B13 chain with V14I, F38W, L41A, L43K, W70V, Q72F, N80V, S83V
B20: CD71-binding FN3 domain SEQ ID NO: 268 (designed binder)
chain: B13 chain with L60P, S83A
B21: CD71-binding FN3 domain SEQ ID NO: 280 (designed binder)
chain: B13 chain with P26L, S83A
B22: CD71-binding FN3 domain SEQ ID NO: 272 (designed binder)
chain: B13 chain with G36A, F38G, N40A, L41A, L43D, V48A, T50L, S83A
B23: CD71-binding FN3 domain SEQ ID NO: 275 (designed binder)
chain: B13 chain with S83A, S86V, I88E
B24: CD71-binding FN3 domain SEQ ID NO: 278 (designed binder)
chain: B13 chain with Y58H, S83A
B25: CD71-binding FN3 domain SEQ ID NO: 285 (designed binder)
chain: B13 chain with P26T, F38W, L41A, L43K, W70V, Q72F, N80V, S83V
B26: CD71-binding FN3 domain SEQ ID NO: 283 (designed binder)
chain: MSLPAPKNLVVSRVTEDSARLSWTAPDAAFDSFEIAYQELSLWGEAIVLTVPGSERSYDLTGLKPGTEYYVHIGGVKGGIWSSPLSAYSTT

Substitutions are numbered along the chain they refer to.

One assay deals with apical domain of CD71 (Screen 3: 'cynomolgus apical domain of human CD71') (cynomolgus (as paragraph 454 words it; ambiguous)). The experiment in a line: primary ELISA, RLU ratio to HSA.
Take B1: the Apical domain:HSA was 411.

In the case of B2, the Apical domain:HSA amounted to 714.

Turning to B3, the Apical domain:HSA was 1060.

Regarding B4, the Apical domain:HSA came to 562.

Regarding B5, the Apical domain:HSA worked out at 680.

On to B6, for which the Apical domain:HSA was determined as 549.

As for B7, the Apical domain:HSA amounted to 206.

For B8, the Apical domain:HSA was 74.

Turning to B9, the Apical domain:HSA came to 488.

Regarding B10, the Apical domain:HSA is 413.

Regarding B11, the Apical domain:HSA turned out to be 365.

In the case of B12, the Apical domain:HSA came out at 178.

Regarding B13, the Apical domain:HSA turned out to be 344.

Consider B14, for which the Apical domain:HSA worked out at 383.

In the case of B15, the Apical domain:HSA is 363.

B16: the Apical domain:HSA worked out at 481.

Take B17: the Apical domain:HSA turned out to be 90.

Consider B18, for which the Apical domain:HSA was 581.

Regarding B19, the Apical domain:HSA worked out at 347.

As to B20, the Apical domain:HSA was determined as 188.

On to B21, for which the Apical domain:HSA was determined as 160.

For the molecule B22, the Apical domain:HSA was 476.

As for B23, the Apical domain:HSA stood at 515.

As for B24, the Apical domain:HSA was determined as 641.

B25: the Apical domain:HSA stood at 368.

In the case of B26, the Apical domain:HSA stood at 229.

The target is the same in another assay. In words: primary ELISA.
As for B1, the RLU came out at 5.16e+06 RLU.

Molecule B2 came in with an RLU of 4.57e+06 RLU.

For the molecule B3, the RLU came to 6.05e+06 RLU.

With B4, the RLU is 7.2e+06 RLU.

Take B5: the RLU was 5.54e+06 RLU.

In turn, B6 returned an RLU of 6.23e+06 RLU.

In turn, B7 showed an RLU of 7.41e+06 RLU.

Consider B8, for which the RLU was 6.3e+06 RLU.

With B9, the RLU stood at 6.76e+06 RLU.

B10 yielded an RLU of 6.93e+06 RLU.

In the case of B11, the RLU turned out to be 4.85e+06 RLU.

Molecule B12 returned an RLU of 6.05e+06 RLU.

Turning to B13, the RLU was 5.51e+06 RLU.

In turn, B14 returned an RLU of 5.75e+06 RLU.

In turn, B15 displayed an RLU of 4.41e+06 RLU.

In turn, B16 came in with an RLU of 6.01e+06 RLU.

B17 yielded an RLU of 4.54e+06 RLU.

In the case of B18, the RLU turned out to be 4.64e+06 RLU.

Molecule B19 came in with an RLU of 4.94e+06 RLU.

In turn, B20 registered an RLU of 5.8e+06 RLU.

As for B21, the RLU turned out to be 4.97e+06 RLU.

Turning to B22, the RLU came to 4.66e+06 RLU.

In turn, B23 displayed an RLU of 5.44e+06 RLU.

Turning to B24, the RLU came out at 5.1e+06 RLU.

The molecule B25 registered an RLU of 5.13e+06 RLU.

Molecule B26 came in with an RLU of 6.14e+06 RLU.

The record behind these values is patent publication US20260151494A1.
